# According to paper PMC9482650, “Quantitative fragmentomics allow affinity mapping of interactomes” (Nature Communications, 2022):
# Target: FRMPD2_2, Q68DX3
# Test: holdup assay
# Design: key: below the threshold = too weak to quantify, mostly under pKd 3.1 to 4
# Conditions: plain residues with an end cap or a label only (N-terminal biotin on a linker: ado-ado)
# Sequence of FRMPD2_2, Q68DX3 (Q68DX3 944-1038): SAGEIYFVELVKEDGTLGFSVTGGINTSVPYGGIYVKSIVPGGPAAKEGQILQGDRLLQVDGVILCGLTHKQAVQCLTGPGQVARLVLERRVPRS
row,Binder,pKd
1,"IPGKEFDTPL [PLCB1, Q9NQ66]",below the threshold

# Target: MAGI2_5, Q86UL8
# Test: holdup assay
# Design: key: below the threshold = too weak to quantify, mostly under pKd 3.1 to 4
# Conditions: plain residues with an end cap or a label only (N-terminal biotin on a linker: ado-ado)
# Sequence of MAGI2_5, Q86UL8 (Q86UL8 915-1017): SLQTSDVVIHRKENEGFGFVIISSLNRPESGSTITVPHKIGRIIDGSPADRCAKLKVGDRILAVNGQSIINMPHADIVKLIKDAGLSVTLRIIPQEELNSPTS
row,Binder,pKd
1,"IPGKEFDTPL [PLCB1, Q9NQ66]",below the threshold

# Target: DLG1_2, Q12959
# Sequence (Q12959 314-412): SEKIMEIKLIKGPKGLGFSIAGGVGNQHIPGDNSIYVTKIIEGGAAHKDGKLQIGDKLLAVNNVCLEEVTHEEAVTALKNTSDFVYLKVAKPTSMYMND
# Test: holdup assay
# Design: key: below the threshold = too weak to quantify, mostly under pKd 3.1 to 4
# Conditions: plain residues with an end cap or a label only (N-terminal biotin on a linker: ado-ado)
row,Binder,pKd
1,"IPGKEFDTPL [PLCB1, Q9NQ66]",3.57

# Target: PTPN3, P26045
# Sequence (P26045 505-587): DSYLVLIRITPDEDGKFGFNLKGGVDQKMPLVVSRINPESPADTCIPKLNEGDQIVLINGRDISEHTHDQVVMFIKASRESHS
# Test: holdup assay
# Design: key: below the threshold = too weak to quantify, mostly under pKd 3.1 to 4
# Conditions: plain residues with an end cap or a label only (N-terminal biotin on a linker: ado-ado)
row,Binder,pKd
1,"IPGKEFDTPL [PLCB1, Q9NQ66]",4.82

# Target: MAGI2_6, Q86UL8
# Sequence (Q86UL8 1141-1229): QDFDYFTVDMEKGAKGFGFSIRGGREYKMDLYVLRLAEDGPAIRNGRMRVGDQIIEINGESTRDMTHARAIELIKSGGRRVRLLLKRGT
# Test: holdup assay
# Design: key: below the threshold = too weak to quantify, mostly under pKd 3.1 to 4
# Conditions: plain residues with an end cap or a label only (N-terminal biotin on a linker: ado-ado)
row,Binder,pKd
1,"IPGKEFDTPL [PLCB1, Q9NQ66]",3.49

# Target: T1, ARHGEF11, O15085
# T1 sequence (O15085 42-136, limits assumed, looked up): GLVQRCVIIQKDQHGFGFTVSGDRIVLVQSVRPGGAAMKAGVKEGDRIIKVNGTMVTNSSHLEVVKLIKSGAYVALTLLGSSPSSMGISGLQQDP
# Test: holdup assay
# Design: key: below the threshold = too weak to quantify, mostly under pKd 3.1 to 4
# Conditions: plain residues with an end cap or a label only (N-terminal biotin on a linker: ado-ado)
row,Binder,pKd
1,"IPGKEFDTPL [PLCB1, Q9NQ66]",below the threshold

# Target: GORASP1, Q9BQQ3
# Sequence (Q9BQQ3 1-208): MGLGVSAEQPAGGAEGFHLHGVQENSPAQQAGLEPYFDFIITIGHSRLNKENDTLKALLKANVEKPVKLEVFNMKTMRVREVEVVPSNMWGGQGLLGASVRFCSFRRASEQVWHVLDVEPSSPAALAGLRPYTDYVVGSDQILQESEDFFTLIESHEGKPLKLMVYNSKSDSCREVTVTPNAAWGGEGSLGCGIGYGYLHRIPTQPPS
# Test: holdup assay
# Design: key: below the threshold = too weak to quantify, mostly under pKd 3.1 to 4
# Conditions: plain residues with an end cap or a label only (N-terminal biotin on a linker: ado-ado)
row,Binder,pKd
1,"IPGKEFDTPL [PLCB1, Q9NQ66]",below the threshold

# Target: Inadl_1, Q8NI35
# Sequence (Q8NI35 113-229): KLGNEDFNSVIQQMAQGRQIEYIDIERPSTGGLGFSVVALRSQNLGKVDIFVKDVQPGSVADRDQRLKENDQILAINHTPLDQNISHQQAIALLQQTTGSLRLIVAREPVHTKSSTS
# Test: holdup assay
# Design: key: below the threshold = too weak to quantify, mostly under pKd 3.1 to 4
# Conditions: plain residues with an end cap or a label only (N-terminal biotin on a linker: ado-ado)
row,Binder,pKd
1,"IPGKEFDTPL [PLCB1, Q9NQ66]",below the threshold

# Target: MAGI3_2, Q5TCQ9
# Sequence (Q5TCQ9 398-503): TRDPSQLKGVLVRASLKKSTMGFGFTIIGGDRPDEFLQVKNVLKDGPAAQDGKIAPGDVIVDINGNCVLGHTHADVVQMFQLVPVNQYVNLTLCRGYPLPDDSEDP
# Test: holdup assay
# Design: key: below the threshold = too weak to quantify, mostly under pKd 3.1 to 4
# Conditions: plain residues with an end cap or a label only (N-terminal biotin on a linker: ado-ado)
row,Binder,pKd
1,"IPGKEFDTPL [PLCB1, Q9NQ66]",below the threshold

# Target: T2, SNTA1, Q13424
# T2 sequence (Q13424 82-180, limits assumed, looked up): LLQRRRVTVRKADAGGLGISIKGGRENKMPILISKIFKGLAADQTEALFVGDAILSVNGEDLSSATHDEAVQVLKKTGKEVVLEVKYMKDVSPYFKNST
# Test: holdup assay
# Design: key: below the threshold = too weak to quantify, mostly under pKd 3.1 to 4
# Conditions: plain residues with an end cap or a label only (N-terminal biotin on a linker: ado-ado)
row,Binder,pKd
1,"IPGKEFDTPL [PLCB1, Q9NQ66]",3.51

# Target: T3, NHERF3_1, Q5T2W1
# T3 sequence (Q5T2W1 4-100, limits assumed, looked up): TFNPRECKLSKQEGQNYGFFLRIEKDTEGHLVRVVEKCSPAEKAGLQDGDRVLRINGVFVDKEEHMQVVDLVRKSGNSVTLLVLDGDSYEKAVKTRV
# Test: holdup assay
# Design: key: below the threshold = too weak to quantify, mostly under pKd 3.1 to 4
# Conditions: plain residues with an end cap or a label only (N-terminal biotin on a linker: ado-ado)
row,Binder,pKd
1,"IPGKEFDTPL [PLCB1, Q9NQ66]",5.12

# Target: T4, GRIP1_3, Q9Y3R0
# T4 sequence (Q9Y3R0 247-346, limits assumed, looked up): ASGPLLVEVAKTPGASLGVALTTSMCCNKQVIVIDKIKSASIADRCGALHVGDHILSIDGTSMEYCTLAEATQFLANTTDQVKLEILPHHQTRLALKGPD
# Test: holdup assay
# Design: key: below the threshold = too weak to quantify, mostly under pKd 3.1 to 4
# Conditions: plain residues with an end cap or a label only (N-terminal biotin on a linker: ado-ado)
row,Binder,pKd
1,"IPGKEFDTPL [PLCB1, Q9NQ66]",below the threshold

# Target: MAGI2_2, Q86UL8
# Sequence (Q86UL8 410-522): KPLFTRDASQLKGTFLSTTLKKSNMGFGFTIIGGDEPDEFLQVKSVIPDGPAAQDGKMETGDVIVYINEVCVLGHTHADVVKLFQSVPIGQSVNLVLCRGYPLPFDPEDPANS
# Test: holdup assay
# Design: key: below the threshold = too weak to quantify, mostly under pKd 3.1 to 4
# Conditions: plain residues with an end cap or a label only (N-terminal biotin on a linker: ado-ado)
row,Binder,pKd
1,"IPGKEFDTPL [PLCB1, Q9NQ66]",below the threshold

# Target: T5, DFNB31_3, Q9P202
# T5 sequence (Q9P202 811-907, limits assumed, looked up): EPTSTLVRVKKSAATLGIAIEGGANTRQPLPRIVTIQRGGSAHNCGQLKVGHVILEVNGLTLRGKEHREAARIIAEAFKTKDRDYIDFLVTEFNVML
# Test: holdup assay
# Design: key: below the threshold = too weak to quantify, mostly under pKd 3.1 to 4
# Conditions: plain residues with an end cap or a label only (N-terminal biotin on a linker: ado-ado)
row,Binder,pKd
1,"IPGKEFDTPL [PLCB1, Q9NQ66]",below the threshold

# Target: DLG2_3, Q15700
# Test: holdup assay
# Design: key: below the threshold = too weak to quantify, mostly under pKd 3.1 to 4
# Conditions: plain residues with an end cap or a label only (N-terminal biotin on a linker: ado-ado)
row,Binder,pKd
1,"IPGKEFDTPL [PLCB1, Q9NQ66]",below the threshold

# Target: NHERF4_2, Q86UT5
# Sequence (Q86UT5 220-308): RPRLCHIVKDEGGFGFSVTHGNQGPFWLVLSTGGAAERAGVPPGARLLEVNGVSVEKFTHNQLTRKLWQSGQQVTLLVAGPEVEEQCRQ
# Test: holdup assay
# Design: key: below the threshold = too weak to quantify, mostly under pKd 3.1 to 4
# Conditions: plain residues with an end cap or a label only (N-terminal biotin on a linker: ado-ado)
row,Binder,pKd
1,"IPGKEFDTPL [PLCB1, Q9NQ66]",below the threshold

# Target: T6, CARD11, Q9BXL7
# T6 sequence (Q9BXL7 662-765, limits assumed, looked up): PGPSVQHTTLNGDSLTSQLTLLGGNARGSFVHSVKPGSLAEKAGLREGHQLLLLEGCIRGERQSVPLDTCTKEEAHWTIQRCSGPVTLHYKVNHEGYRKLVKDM
# Test: holdup assay
# Design: key: below the threshold = too weak to quantify, mostly under pKd 3.1 to 4
# Conditions: plain residues with an end cap or a label only (N-terminal biotin on a linker: ado-ado)
row,Binder,pKd
1,"IPGKEFDTPL [PLCB1, Q9NQ66]",below the threshold

# Target: DLG1_3, Q12959
# Sequence (Q12959 457-571): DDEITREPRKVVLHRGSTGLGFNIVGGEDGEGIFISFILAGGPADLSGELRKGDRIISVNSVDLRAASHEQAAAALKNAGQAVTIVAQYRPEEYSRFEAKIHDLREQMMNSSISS
# Test: holdup assay
# Design: key: below the threshold = too weak to quantify, mostly under pKd 3.1 to 4
# Conditions: plain residues with an end cap or a label only (N-terminal biotin on a linker: ado-ado)
row,Binder,pKd
1,"IPGKEFDTPL [PLCB1, Q9NQ66]",below the threshold

# Target: SCRIB_3, Q14160
# Sequence (Q14160 999-1103): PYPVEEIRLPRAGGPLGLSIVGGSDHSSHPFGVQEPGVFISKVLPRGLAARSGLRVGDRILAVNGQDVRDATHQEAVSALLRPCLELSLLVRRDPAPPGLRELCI
# Test: holdup assay
# Design: key: below the threshold = too weak to quantify, mostly under pKd 3.1 to 4
# Conditions: plain residues with an end cap or a label only (N-terminal biotin on a linker: ado-ado)
row,Binder,pKd
1,"IPGKEFDTPL [PLCB1, Q9NQ66]",4.3

# Target: Inadl_4, Q8NI35
# Sequence (Q8NI35 547-651): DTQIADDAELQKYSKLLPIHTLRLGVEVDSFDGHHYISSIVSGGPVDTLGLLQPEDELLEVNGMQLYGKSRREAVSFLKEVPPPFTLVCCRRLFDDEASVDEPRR
# Test: holdup assay
# Design: key: below the threshold = too weak to quantify, mostly under pKd 3.1 to 4
# Conditions: plain residues with an end cap or a label only (N-terminal biotin on a linker: ado-ado)
row,Binder,pKd
1,"IPGKEFDTPL [PLCB1, Q9NQ66]",below the threshold

# Target: T7, LNX2_3, Q8N448
# T7 sequence (Q8N448 463-564, limits assumed, looked up): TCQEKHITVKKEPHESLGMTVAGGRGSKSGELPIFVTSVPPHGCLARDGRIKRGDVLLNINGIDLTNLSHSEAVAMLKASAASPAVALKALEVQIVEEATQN
# Test: holdup assay
# Design: key: below the threshold = too weak to quantify, mostly under pKd 3.1 to 4
# Conditions: plain residues with an end cap or a label only (N-terminal biotin on a linker: ado-ado)
row,Binder,pKd
1,"IPGKEFDTPL [PLCB1, Q9NQ66]",below the threshold

# Target: T8, GRIP1_5, Q9Y3R0
# T8 sequence (Q9Y3R0 568-668, limits assumed, looked up): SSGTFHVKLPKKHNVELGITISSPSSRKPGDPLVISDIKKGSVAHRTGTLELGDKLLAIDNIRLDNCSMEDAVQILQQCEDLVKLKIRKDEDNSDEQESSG
# Test: holdup assay
# Design: key: below the threshold = too weak to quantify, mostly under pKd 3.1 to 4
# Conditions: plain residues with an end cap or a label only (N-terminal biotin on a linker: ado-ado)
row,Binder,pKd
1,"IPGKEFDTPL [PLCB1, Q9NQ66]",below the threshold

# Target: T9, MPDZ_10, O75970
# T9 sequence (O75970 1624-1722, limits assumed, looked up): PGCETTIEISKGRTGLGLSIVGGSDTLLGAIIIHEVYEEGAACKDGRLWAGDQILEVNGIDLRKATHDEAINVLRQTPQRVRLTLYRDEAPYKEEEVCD
# Test: holdup assay
# Design: key: below the threshold = too weak to quantify, mostly under pKd 3.1 to 4
# Conditions: plain residues with an end cap or a label only (N-terminal biotin on a linker: ado-ado)
row,Binder,pKd
1,"IPGKEFDTPL [PLCB1, Q9NQ66]",below the threshold

# Target: GRIP2_5, Q9C0E4
# Sequence (Q9C0E4 544-642): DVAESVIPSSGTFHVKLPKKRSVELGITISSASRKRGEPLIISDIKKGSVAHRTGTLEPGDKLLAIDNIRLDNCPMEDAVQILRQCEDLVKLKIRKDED
# Test: holdup assay
# Design: key: below the threshold = too weak to quantify, mostly under pKd 3.1 to 4
# Conditions: plain residues with an end cap or a label only (N-terminal biotin on a linker: ado-ado)
row,Binder,pKd
1,"IPGKEFDTPL [PLCB1, Q9NQ66]",below the threshold

# Target: HTRA2, O43464
# Sequence (O43464 355-458): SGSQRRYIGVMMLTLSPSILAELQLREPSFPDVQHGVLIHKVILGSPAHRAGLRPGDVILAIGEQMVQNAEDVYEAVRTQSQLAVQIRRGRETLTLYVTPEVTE
# Test: holdup assay
# Design: key: below the threshold = too weak to quantify, mostly under pKd 3.1 to 4
# Conditions: plain residues with an end cap or a label only (N-terminal biotin on a linker: ado-ado)
row,Binder,pKd
1,"IPGKEFDTPL [PLCB1, Q9NQ66]",below the threshold

# Target: GRIP2_3, Q9C0E4
# Sequence (Q9C0E4 238-339): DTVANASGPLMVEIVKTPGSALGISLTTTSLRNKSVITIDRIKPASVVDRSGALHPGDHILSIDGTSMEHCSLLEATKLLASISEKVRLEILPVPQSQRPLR
# Test: holdup assay
# Design: key: below the threshold = too weak to quantify, mostly under pKd 3.1 to 4
# Conditions: plain residues with an end cap or a label only (N-terminal biotin on a linker: ado-ado)
row,Binder,pKd
1,"IPGKEFDTPL [PLCB1, Q9NQ66]",below the threshold

# Target: T10, RADIL, Q96JH8
# T10 sequence (Q96JH8 971-1071, limits assumed, looked up): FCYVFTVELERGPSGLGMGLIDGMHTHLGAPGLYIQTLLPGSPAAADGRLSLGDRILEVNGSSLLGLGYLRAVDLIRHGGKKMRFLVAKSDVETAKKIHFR
# Test: holdup assay
# Design: key: below the threshold = too weak to quantify, mostly under pKd 3.1 to 4
# Conditions: plain residues with an end cap or a label only (N-terminal biotin on a linker: ado-ado)
row,Binder,pKd
1,"IPGKEFDTPL [PLCB1, Q9NQ66]",below the threshold
